Where no end group is shown, it is not given here. [ ]: non-standard residue; d: D form. Ac6c = NC1(C(=O)O)CCCCC1; Sar = CNCC(=O)O
T1: rat angiotensin 2 type 1 receptor (rat, UniProt P25095 1-359)
T1 sequence (looked up): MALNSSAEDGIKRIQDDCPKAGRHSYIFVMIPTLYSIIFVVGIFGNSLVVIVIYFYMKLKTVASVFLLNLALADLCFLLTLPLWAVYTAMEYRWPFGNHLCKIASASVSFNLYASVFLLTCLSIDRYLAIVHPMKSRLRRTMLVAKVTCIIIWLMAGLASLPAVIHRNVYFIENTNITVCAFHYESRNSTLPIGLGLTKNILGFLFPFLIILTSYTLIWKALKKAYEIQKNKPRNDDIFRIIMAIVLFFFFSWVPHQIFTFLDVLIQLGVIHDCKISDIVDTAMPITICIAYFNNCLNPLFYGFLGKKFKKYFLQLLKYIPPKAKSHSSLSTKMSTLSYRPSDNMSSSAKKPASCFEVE

T2: human angiotensin 2 type 1 receptor (human, UniProt P30556 1-359)
T2 sequence (looked up): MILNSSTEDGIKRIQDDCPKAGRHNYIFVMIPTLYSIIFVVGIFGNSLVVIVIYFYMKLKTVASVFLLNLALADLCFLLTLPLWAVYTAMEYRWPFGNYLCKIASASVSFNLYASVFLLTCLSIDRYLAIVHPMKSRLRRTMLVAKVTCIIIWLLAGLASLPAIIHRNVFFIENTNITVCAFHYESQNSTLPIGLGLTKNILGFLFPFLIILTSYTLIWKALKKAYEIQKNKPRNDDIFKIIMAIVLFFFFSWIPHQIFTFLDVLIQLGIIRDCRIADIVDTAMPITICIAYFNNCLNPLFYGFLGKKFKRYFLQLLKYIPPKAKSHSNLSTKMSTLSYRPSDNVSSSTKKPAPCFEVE


Each binder was assayed against T1, rat angiotensin 2 type 1 receptor (assay: cell-based or functional assay).

Row | IP1 G-protein assay EC50 | IP1 G-protein assay Span | IP1 G-protein assay pEC50 | Binder
1 | > 0.6 nM |  | > 9.2 | [Sar]RVYPHPI [SEQ ID NO: 4 (Sar-Arg-Val-Tyr-Pro-His-Pro-Ile)]
2 | > 0.6 nM | < 104 | < 9.2 | [Sar]RVY[Ac6c]HPS [SEQ ID NO: 15 (Sar-Arg-Val-Tyr-cyHex-His-Pro-Ser)]
3 | > 0.6 nM |  | > 9.2 | [Sar]RVYPHPT [SEQ ID NO: 7 (Sar-Arg-Val-Tyr-Pro-His-Pro-Thr)]
4 | > 0.6 nM | < 104 | < 9.2 | [Sar]RVYPHPV [SEQ ID NO: 6 (Sar-Arg-Val-Tyr-Pro-His-Pro-Val)]
5 | > 0.6 nM |  | > 9.2 | [Sar]RVY[Ac6c]HPI [SEQ ID NO: 11 (Sar-Arg-Val-Tyr-cyHex-His-Pro-Ile)]

Further lines, the binder ahead of its results:

Row | Binder | IP1 G-protein assay EC50 | IP1 G-protein assay Span | IP1 G-protein assay pEC50
6 | [Sar]RVYPHP[dA] [SEQ ID NO: 60 (Sar-Arg-Val-Tyr-Pro-His-Pro-D-Ala)] | > 0.6 nM | < 104 | < 9.2
7 | [Sar]RVYPHPS [SEQ ID NO: 8 (Sar-Arg-Val-Tyr-Pro-His-Pro-Ser)] | > 0.6 nM |  | > 9.2
8 | [Sar]RVY[Ac6c]HPM [SEQ ID NO: 16 (Sar-Arg-Val-Tyr-cyHex-His-Pro-Met)] | > 0.6 nM | < 104 | < 9.2
9 | [Sar]RVYPHPL [SEQ ID NO: 5 (Sar-Arg-Val-Tyr-Pro-His-Pro-Leu)] | > 0.6 nM | < 104 | < 9.2
10 | [Sar]RVY[Ac6c]HPT [SEQ ID NO: 14 (Sar-Arg-Val-Tyr-cyHex-His-Pro-Thr)] | > 0.6 nM |  | > 9.2
11 | [Sar]RVYPHPM [SEQ ID NO: 9 (Sar-Arg-Val-Tyr-Pro-His-Pro-Met)] | > 0.6 nM | < 104 | < 9.2
12 | [Sar]RVY[Ac6c]HPF [SEQ ID NO: 17 (Sar-Arg-Val-Tyr-cyHex-His-Pro-Phe)] | > 0.6 nM | > 104 | < 9.2
13 | [Sar]RVY[Ac6c]HPL [SEQ ID NO: 12 (Sar-Arg-Val-Tyr-cyHex-His-Pro-Leu)] | > 0.6 nM | < 104 | < 9.2
14 | [Sar]RVYPHPF [SEQ ID NO: 10 (Sar-Arg-Val-Tyr-Pro-His-Pro-Phe)] | > 0.6 nM | < 104 | < 9.2

These binders were tested against T2, human angiotensin 2 type 1 receptor (assay: cell-based or functional assay).

Row | IP1 G-protein assay EC50 | IP1 G-protein assay Span | IP1 G-protein assay pEC50 | Binder
15 | 2.5 nM | < 103 | < 9.2 | [Sar]RVYPHPI [SEQ ID NO: 4 (Sar-Arg-Val-Tyr-Pro-His-Pro-Ile)]
16 | > 1.3 nM |  | > 9.2 | [Sar]RVY[Ac6c]HPS [SEQ ID NO: 15 (Sar-Arg-Val-Tyr-cyHex-His-Pro-Ser)]
17 | > 10000 nM |  | > 9.2 | [Sar]RVYPHPT [SEQ ID NO: 7 (Sar-Arg-Val-Tyr-Pro-His-Pro-Thr)]
18 | 63.1 nM | < 103 | < 9.2 | [Sar]RVYPHPV [SEQ ID NO: 6 (Sar-Arg-Val-Tyr-Pro-His-Pro-Val)]
19 | > 1.3 nM | < 103 | < 9.2 | [Sar]RVY[Ac6c]HPI [SEQ ID NO: 11 (Sar-Arg-Val-Tyr-cyHex-His-Pro-Ile)]

The next lines start with the binder.

Row | Binder | IP1 G-protein assay EC50 | IP1 G-protein assay Span | IP1 G-protein assay pEC50
20 | [Sar]RVYPHP[dA] [SEQ ID NO: 60 (Sar-Arg-Val-Tyr-Pro-His-Pro-D-Ala)] | > 1.3 nM | < 103 | < 9.2
21 | [Sar]RVYPHPS [SEQ ID NO: 8 (Sar-Arg-Val-Tyr-Pro-His-Pro-Ser)] | 6310 nM | < 103 | < 9.2
22 | [Sar]RVY[Ac6c]HPM [SEQ ID NO: 16 (Sar-Arg-Val-Tyr-cyHex-His-Pro-Met)] | > 1.3 nM | < 103 | < 9.2
23 | [Sar]RVYPHPL [SEQ ID NO: 5 (Sar-Arg-Val-Tyr-Pro-His-Pro-Leu)] | 3.2 nM | < 103 | < 9.2
24 | [Sar]RVY[Ac6c]HPT [SEQ ID NO: 14 (Sar-Arg-Val-Tyr-cyHex-His-Pro-Thr)] | > 1.3 nM |  | > 9.2
25 | [Sar]RVYPHPM [SEQ ID NO: 9 (Sar-Arg-Val-Tyr-Pro-His-Pro-Met)] | 5 nM | < 103 | < 9.2
26 | [Sar]RVY[Ac6c]HPF [SEQ ID NO: 17 (Sar-Arg-Val-Tyr-cyHex-His-Pro-Phe)] | < 1.3 nM | < 103 | < 9.2
27 | [Sar]RVY[Ac6c]HPL [SEQ ID NO: 12 (Sar-Arg-Val-Tyr-cyHex-His-Pro-Leu)] | > 1.3 nM | < 103 | < 9.2
28 | [Sar]RVYPHPF [SEQ ID NO: 10 (Sar-Arg-Val-Tyr-Pro-His-Pro-Phe)] | 1.3 nM | < 103 | < 9.2

Target: T1, rat angiotensin 2 type 1 receptor
Experiment: cell-based or functional assay
Remark: another data set of the same source

Row | beta-arrestin2 assay EC50 | beta-arrestin2 assay Span | beta-arrestin2 assay pEC50 | Binder
29 | > 3.2 nM | < 105 | < 8.5 | [Sar]RVYPHPI [SEQ ID NO: 4 (Sar-Arg-Val-Tyr-Pro-His-Pro-Ile)]
30 | > 3.2 nM | < 105 | < 8.5 | [Sar]RVY[Ac6c]HPS [SEQ ID NO: 15 (Sar-Arg-Val-Tyr-cyHex-His-Pro-Ser)]
31 | > 3.2 nM | < 105 | < 8.5 | [Sar]RVYPHPT [SEQ ID NO: 7 (Sar-Arg-Val-Tyr-Pro-His-Pro-Thr)]
32 | > 3.2 nM | < 105 | < 8.5 | [Sar]RVYPHPV [SEQ ID NO: 6 (Sar-Arg-Val-Tyr-Pro-His-Pro-Val)]
33 | > 3.2 nM | < 105 | < 8.5 | [Sar]RVY[Ac6c]HPI [SEQ ID NO: 11 (Sar-Arg-Val-Tyr-cyHex-His-Pro-Ile)]

Further lines, the binder ahead of its results:

Row | Binder | beta-arrestin2 assay EC50 | beta-arrestin2 assay Span | beta-arrestin2 assay pEC50
34 | [Sar]RVYPHP[dA] [SEQ ID NO: 60 (Sar-Arg-Val-Tyr-Pro-His-Pro-D-Ala)] | > 3.2 nM | < 105 | < 8.5
35 | [Sar]RVYPHPS [SEQ ID NO: 8 (Sar-Arg-Val-Tyr-Pro-His-Pro-Ser)] | > 3.2 nM | < 105 | < 8.5
36 | [Sar]RVY[Ac6c]HPM [SEQ ID NO: 16 (Sar-Arg-Val-Tyr-cyHex-His-Pro-Met)] | > 3.2 nM | < 105 | < 8.5
37 | [Sar]RVYPHPL [SEQ ID NO: 5 (Sar-Arg-Val-Tyr-Pro-His-Pro-Leu)] | > 3.2 nM | < 105 | < 8.5
38 | [Sar]RVY[Ac6c]HPT [SEQ ID NO: 14 (Sar-Arg-Val-Tyr-cyHex-His-Pro-Thr)] | > 3.2 nM | < 105 | < 8.5
39 | [Sar]RVYPHPM [SEQ ID NO: 9 (Sar-Arg-Val-Tyr-Pro-His-Pro-Met)] | > 3.2 nM | < 105 | < 8.5
40 | [Sar]RVY[Ac6c]HPF [SEQ ID NO: 17 (Sar-Arg-Val-Tyr-cyHex-His-Pro-Phe)] | 3.2 nM | < 105 | 8.5
41 | [Sar]RVY[Ac6c]HPL [SEQ ID NO: 12 (Sar-Arg-Val-Tyr-cyHex-His-Pro-Leu)] | > 3.2 nM | < 105 | < 8.5
42 | [Sar]RVYPHPF [SEQ ID NO: 10 (Sar-Arg-Val-Tyr-Pro-His-Pro-Phe)] | 3.2 nM | > 105 | 8.5

Target: T2, human angiotensin 2 type 1 receptor
Experiment: cell-based or functional assay
Remark: another data set of the same source

Row | beta-arrestin2 assay EC50 | beta-arrestin2 assay Span | beta-arrestin2 assay pEC50 | Binder
43 | > 3.2 nM | < 101 | < 8.5 | [Sar]RVYPHPI [SEQ ID NO: 4 (Sar-Arg-Val-Tyr-Pro-His-Pro-Ile)]
44 | > 3.2 nM | < 101 | < 8.5 | [Sar]RVY[Ac6c]HPS [SEQ ID NO: 15 (Sar-Arg-Val-Tyr-cyHex-His-Pro-Ser)]
45 | > 3.2 nM | < 101 | < 8.5 | [Sar]RVYPHPT [SEQ ID NO: 7 (Sar-Arg-Val-Tyr-Pro-His-Pro-Thr)]
46 | > 3.2 nM | < 101 | < 8.5 | [Sar]RVYPHPV [SEQ ID NO: 6 (Sar-Arg-Val-Tyr-Pro-His-Pro-Val)]
47 | > 3.2 nM | < 101 | < 8.5 | [Sar]RVY[Ac6c]HPI [SEQ ID NO: 11 (Sar-Arg-Val-Tyr-cyHex-His-Pro-Ile)]

Continued, binder first:

Row | Binder | beta-arrestin2 assay EC50 | beta-arrestin2 assay Span | beta-arrestin2 assay pEC50
48 | [Sar]RVYPHP[dA] [SEQ ID NO: 60 (Sar-Arg-Val-Tyr-Pro-His-Pro-D-Ala)] | > 3.2 nM | < 101 | < 8.5
49 | [Sar]RVYPHPS [SEQ ID NO: 8 (Sar-Arg-Val-Tyr-Pro-His-Pro-Ser)] | > 3.2 nM | < 101 | < 8.5
50 | [Sar]RVY[Ac6c]HPM [SEQ ID NO: 16 (Sar-Arg-Val-Tyr-cyHex-His-Pro-Met)] | > 3.2 nM | < 101 | < 8.5
51 | [Sar]RVYPHPL [SEQ ID NO: 5 (Sar-Arg-Val-Tyr-Pro-His-Pro-Leu)] | > 3.2 nM | < 101 | < 8.5
52 | [Sar]RVY[Ac6c]HPT [SEQ ID NO: 14 (Sar-Arg-Val-Tyr-cyHex-His-Pro-Thr)] | > 3.2 nM | < 101 | < 8.5
53 | [Sar]RVYPHPM [SEQ ID NO: 9 (Sar-Arg-Val-Tyr-Pro-His-Pro-Met)] | > 3.2 nM | < 101 | < 8.5
54 | [Sar]RVY[Ac6c]HPF [SEQ ID NO: 17 (Sar-Arg-Val-Tyr-cyHex-His-Pro-Phe)] | > 3.2 nM | > 101 | < 8.5
55 | [Sar]RVY[Ac6c]HPL [SEQ ID NO: 12 (Sar-Arg-Val-Tyr-cyHex-His-Pro-Leu)] | > 3.2 nM | < 101 | < 8.5
56 | [Sar]RVYPHPF [SEQ ID NO: 10 (Sar-Arg-Val-Tyr-Pro-His-Pro-Phe)] | > 3.2 nM | < 101 | < 8.5

From US20150105316A1 (TREVENA, published 2015)
